Key:
[1] = target: HLA-A*02:01 (Homo sapiens, UniProt P04439, D140Y/D185E/D98H/E176V/E277Q/G131W/G231S/I119V/I121R/I166T/I218V/L300P/L318F/N151K/N90K/P208A/P217A/Q86G/Q94H/R138H/R169H/T345S); assay: MHC binding assay (UV-ligand exchange, β2m ELISA, peptide exchange yield); conditions: binding to HLA-A*02:01
Outline: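 Peptide-HLA-A*02:01 complexes formed by UV-mediated exchange of a photocleavable ligand; exchange yield measured by streptavidin-capture ELISA detecting β2m with HRP anti-β2m, TMB read at 450 nm. Refolded monomer standards 15-500 ng/ml; samples diluted 100-fold.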

[2] = test system: CD8+ T cells; assay: In vitro immunogenicity: T-cell priming with aAPCs loaded with peptide/MHC and anti-CD28, pMHC multimer readout; assay type: cell-based, human; conditions: HLA-A*02 restricted peptides, percentage of positive wells among evaluable
Protocol: FIGS. 3A-3F describe simulation graphs of various peptides of the present disclosure. […] CD8+ T cells were primed using artificial APCs coated with anti-CD28 mAb and HLA-A*02 in complex with SeqID No 1 peptide (FIG. 3C, left panel), SeqID No 5 peptide (FIG. 3D left panel), SeqID No 32 peptide (FIG. 3E, left panel) and SeqID No 220 peptide (FIG. 3F, left panel), respectively. After three cycles of stimulation, the detection of peptide-reactive cells was performed by 2D multimer staining with A*02/SeqID No 1 (FIG. 3C), A*02/SeqID No 5 (D), A*02/SeqID No 32 (FIG. 3E) or A*02/SeqID No 220 (FIG. 3F). Right panels (FIGS. 3C, 3D, 3E and 3F) show control staining of cells stimulated with irrelevant A*02/peptide complexes. Viable singlet cells were gated for CD8+ lymphocytes. Boolean gates helped excluding false-positive events detected with multimers specific for different peptides.
In order to obtain information regarding the immunogenicity of the TUMAPs of the present invention, the inventors performed investigations using an in vitro T-cell priming assay based on repeated stimulations of CD8+ T cells with artificial antigen presenting cells (aAPCs) loaded with peptide/MHC complexes and anti-CD28 antibody.
In order to perform in vitro stimulations by artificial antigen presenting cells loaded with peptide-MHC complex (pMHC) and anti-CD28 antibody, the inventors first isolated CD8+ T cells from fresh HLA-A*02 leukapheresis products via positive selection using CD8 microbeads (Miltenyi Biotec, Bergisch-Gladbach, Germany) of healthy donors obtained from the University clinics Mannheim, Germany, after informed consent.
PBMCs and isolated CD8+ lymphocytes were incubated in T-cell medium (TCM) until use consisting of RPMI-Glutamax (Invitrogen, Karlsruhe, Germany) supplemented with 10% heat inactivated human AB serum (PAN-Biotech, Aidenbach, Germany), 100 U/ml Penicillin/100 μg/ml Streptomycin (Cambrex, Cologne, Germany), 1 mM sodium pyruvate (CC Pro, Oberdorla, Germany), 20 μg/ml Gentamycin (Cambrex). 2.5 ng/ml IL-7 (PromoCell, Heidelberg, Germany) and 10 U/ml IL-2 (Novartis Pharma, Nümberg, Germany) were also added to the TCM at this step.
Generation of pMHC/anti-CD28 coated beads, T-cell stimulations and readout was performed in a highly defined in vitro system using four different pMHC molecules per stimulation condition and 8 different pMHC molecules per readout condition.
The purified co-stimulatory mouse IgG2a anti human CD28 Ab 9.3 (Jung et al., 1987) was chemically biotinylated using Sulfo-N-hydroxysuccinimidobiotin as recommended by the manufacturer (Perbio, Bonn, Germany). Beads used were 5.6 μm diameter streptavidin coated polystyrene particles (Bangs Laboratories, Illinois, USA).
800.000 beads/200 μl were coated in 96-well plates in the presence of 4×12.5 ng different biotin-pMHC, washed and 600 ng biotin anti-CD28 were added subsequently in a volume of 200 μl. Stimulations were initiated in 96-well plates by co-incubating 1×10^6 CD8+ T cells with 2×10^6 washed coated beads in 200 μl TCM supplemented with 5 ng/ml IL-12 (PromoCell) for 3 days at 37° C. Half of the medium was then exchanged by fresh TCM supplemented with 80 U/ml IL-2 and incubating was continued for 4 days at 37° C. This stimulation cycle was performed for a total of three times. For the pMHC multimer readout using 8 different pMHC molecules per condition, a two-dimensional combinatorial coding approach was used as previously described (Andersen et al., 2012) with minor modifications encompassing coupling to 5 different fluorochromes. Finally, multimeric analyses were performed by staining the cells with Live/dead near IR dye (Invitrogen, Karlsruhe, Germany), CD8-FITC antibody clone SK1 (BD, Heidelberg, Germany) and fluorescent pMHC multimers. For analysis, a BD LSRII SORP cytometer equipped with appropriate lasers and filters was used.

| Substance | Peptide Exchange (MHC class I binding score, peptide exchange yield) [1] | Wells positive [%] [2] |
| --- | --- | --- |
| 2 (ALHRPDVYL; listed as Homo sapiens) [compound 2] | “+++” (>50 = +++) | “+” (<20% = +) |
| 17 (ALTKTNLQL; listed as Homo sapiens) [compound 17] | “+++” (>50 = +++) | “+” (<20% = +) |
| 26 (AVLLVLPLV; listed as Homo sapiens) [compound 26] | “+++” (>50 = +++) | “+” (<20% = +) |
| 32 (FIDKFTPPV; listed as Homo sapiens) [compound 32] | “++++” (>75% = ++++) | “++++” (>=70% = ++++) |
| 54 (FLYPFPLALF; listed as Homo sapiens) [compound 54] | “+++” (>50 = +++) | “+” (<20% = +) |
| 57 (GLSEISLRL; listed as Homo sapiens) [compound 57] | “++++” (>75% = ++++) | “+” (<20% = +) |
| 69 (GLHQREIFL; listed as Homo sapiens) [compound 69] | “+++” (>50 = +++) | “+” (<20% = +) |
| 81 (WLVGQEFEL; listed as Homo sapiens) [compound 81] | “+++” (>50 = +++) | “+” (<20% = +) |
| 86 (HLYPGAVTI; listed as Homo sapiens) [compound 86] | “+++” (>50 = +++) | “+” (<20% = +) |
| 96 (ILIDKTSFV; listed as Homo sapiens) [compound 96] | “+++” (>50 = +++) | “+” (<20% = +) |
| 101 (ILVVIEPLL; listed as Homo sapiens) [compound 101] | “++++” (>75% = ++++) | “+” (<20% = +) |
| 102 (IQDRAVPSL; listed as Homo sapiens) [compound 102] | “++” (>20% = ++) | “+” (<20% = +) |
| 112 (KTLDVDATYEI; listed as Homo sapiens) [compound 112] | “+++” (>50 = +++) | “+” (<20% = +) |
| 114 (LIPEGPPQV; listed as Homo sapiens) [compound 114] | “+++” (>50 = +++) | “+” (<20% = +) |
| 154 (SLLAELHVLTV; listed as Homo sapiens) [compound 154] | “++++” (>75% = ++++) | “+” (<20% = +) |
| 192 (YIQEYLTLL; listed as Homo sapiens) [compound 192] | “+++” (>50 = +++) | “+” (<20% = +) |
| 197 (YLQEVPILTL; listed as Homo sapiens) [compound 197] | “++++” (>75% = ++++) | “+” (<20% = +) |
| 200 (YMFEEVPIVI; listed as Homo sapiens) [compound 200] | “++++” (>75% = ++++) | “+” (<20% = +) |
| 201 (YQLELHGIEL; listed as Homo sapiens) [compound 201] | “++++” (>75% = ++++) | “+” (<20% = +) |
| 240 (ILARDILEI; listed as Homo sapiens) [compound 240] | “+++” (>50 = +++) | “+” (<20% = +) |
| 281 (NLLDDRGMTAL; listed as Homo sapiens) [compound 281] | “+++” (>50 = +++) | “+” (<20% = +) |
| 307 (LLLTKPTEA; listed as Homo sapiens) [compound 307] | “+++” (>50 = +++) | “+” (<20% = +) |
| 320 (TIAPVTVAV; listed as Homo sapiens) [compound 320] | “++++” (>75% = ++++) | “+” (<20% = +) |
| 322 (SLASIHVPL; listed as Homo sapiens) [compound 322] | “+++” (>50 = +++) | “+” (<20% = +) |
| 323 (SLDLFNCEV; listed as Homo sapiens) [compound 323] | “++++” (>75% = ++++) | “+” (<20% = +) |
| 332 (VMIQHVENL; listed as Homo sapiens) [compound 332] | “+++” (>50 = +++) | “+” (<20% = +) |
| 380 (YLDRKLLTL; listed as Homo sapiens) [compound 380] | “+++” (>50 = +++) | “++++” (>=70% = ++++) |
